Results taken from article PMC11019930, “DnaK duplication and specialization in bacteria correlates with increased proteome complexity” (mSystems, 2024).
Each block holds one molecule with its values, some of them ahead of it.

Tests used:
[1] = biological target: N2β1α1C1, recombinant purified (the MxDnaK1 chimera with the MxDnaK2 NBD) (Myxococcus xanthus DK1622); test: SDS-PAGE of the purified protein (monomer and dimer bands); purified MxDnaKs and chimeras on SDS-PAGE, without DTT treatment; monomer (1×) and dimer (2×) bands
[2] = biological target: the molecule itself; test: as above

oligomer state on SDS-PAGE (subunits per band) [1]: 2
Molecule: N2β1α1C1, recombinant purified (the MxDnaK1 chimera with the MxDnaK2 NBD)

B1: His6-MxDnaK2 (natural protein, Myxococcus xanthus DK1622, UniProt P95334 1-607, looked up)
chain: MGKVIGIDLGTTNSCVAVMEGGEPVVIPNSEGSRTTPSMVGFTDSGERLVGQIAKRQAITNPENTVFAAKRLIGRKFDSPEGKKAIGVSPFKVASSPNGDAWVEIRGKGYSPPEVSAIVLMKMKQTAEDYLGEQVSEAVITVPAYFNDSQRQATKDAGRIAGLSVLRIINEPTAAALAYGLDKVQDGGTERIAVYDLGGGTFDISILELNAGVFEVKSTNGDTFLGGEDFDQRLIDYLAKRFAESNNGLDLRKDRMALQRLKEAAERAKHELSSAPETEVNLPFITADASGPKHLTETVDRATFEALVTDLIDRTIEPCRIALKDAGIPAQQINQVLLVGGMTRMPRVQQKVKEFFGREPHKGINPDEVVAVGAAIQGGVLKGEVKDVLLLDVTPLSLGVETAGGVFTKIIDKNTTIPCKKSQVFSTAVDNQPLVSVHVLQGEREMAADNKTLARFELVGIPPAPRGVPQIEVSFDIDANGIVHVSAKDLGTGKVQQVRVVSNSGLSEAEIQAMISDAQSHASDDKKKKELAELRNNADGLIYTTEKSLEEYASLLSEKDREEIKADLERLKEVLNTSDAAVLKESFQRLEGSAYRIADAIYTGQAS
notes: MxDnaK2 (MXAN_6671) of Myxococcus xanthus DK1622; the gene was amplified from genomic DNA and cloned into pET28a; His6-MxDnaK2 printed as 65.3 kDa; also called MxDnaK2, recombinant purified; source: E. coli BL21 (DE3), purified (Ni-NTA); not shown: His6, N-terminal, kept
stoichiometry N [2]: 2
